Measured values from patent publication US20030036181A1 (MAXYGEN, published 2003).

Target: T1, human FSH receptor, stably expressed on CHO K1 cells (CHO FSH-R/CRE-luc cell line) (human, UniProt P23945 18-695)
T1 sequence (looked up): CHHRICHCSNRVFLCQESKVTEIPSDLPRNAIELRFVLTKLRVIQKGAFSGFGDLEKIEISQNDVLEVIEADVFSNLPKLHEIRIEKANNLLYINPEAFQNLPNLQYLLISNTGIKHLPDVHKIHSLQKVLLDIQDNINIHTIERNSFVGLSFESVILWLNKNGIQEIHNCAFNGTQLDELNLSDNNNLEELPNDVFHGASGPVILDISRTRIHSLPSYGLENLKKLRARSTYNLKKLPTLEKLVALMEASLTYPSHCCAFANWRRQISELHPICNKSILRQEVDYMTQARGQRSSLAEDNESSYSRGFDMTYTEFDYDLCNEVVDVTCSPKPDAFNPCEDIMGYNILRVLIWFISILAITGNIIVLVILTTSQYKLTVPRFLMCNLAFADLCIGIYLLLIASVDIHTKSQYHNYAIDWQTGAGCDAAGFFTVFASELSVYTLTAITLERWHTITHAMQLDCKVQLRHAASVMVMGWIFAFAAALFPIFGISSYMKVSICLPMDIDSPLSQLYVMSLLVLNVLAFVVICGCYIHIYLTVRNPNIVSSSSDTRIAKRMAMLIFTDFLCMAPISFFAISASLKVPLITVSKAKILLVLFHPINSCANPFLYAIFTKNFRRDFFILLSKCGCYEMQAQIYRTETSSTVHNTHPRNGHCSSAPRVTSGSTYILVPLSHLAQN
Experiment: cell-based or functional assay

B1: FSH1208: variant form of FSH containing two N-linked glycosylations at the N-terminus of the alpha subunit (ligand)
chain 1: not shown
chain 2: CELTNITIAIEKEECRFCISINTTWCAGYCYTRDLVYKDPARPKIQKTCTFKELVYETVRVPGCAHHADSLYTYPVATQCHCGKCDSDSTDCTVRGLGPSYCSFGEMKE
modifications: both asparagine residues of the extension … are glycosylated
  specific activity (in vitro bioactivity in the FSH luciferase assay over FSH content by ELISA), relative to the wildtype reference: ~0.33 fold of wildtype FSH
